Results on six molecules are retold here after paper PMC9127186, “Molecular Basis Underlying Hepatobiliary and Renal Excretion of Phenolic Acids of Salvia miltiorrhiza Roots (Danshen)” (Frontiers in Pharmacology, 2022).

For data set [1], the target named is T1, rat Bcrp (Rattus norvegicus, UniProt Q80W57).
T1 sequence (Q80W57 1-657): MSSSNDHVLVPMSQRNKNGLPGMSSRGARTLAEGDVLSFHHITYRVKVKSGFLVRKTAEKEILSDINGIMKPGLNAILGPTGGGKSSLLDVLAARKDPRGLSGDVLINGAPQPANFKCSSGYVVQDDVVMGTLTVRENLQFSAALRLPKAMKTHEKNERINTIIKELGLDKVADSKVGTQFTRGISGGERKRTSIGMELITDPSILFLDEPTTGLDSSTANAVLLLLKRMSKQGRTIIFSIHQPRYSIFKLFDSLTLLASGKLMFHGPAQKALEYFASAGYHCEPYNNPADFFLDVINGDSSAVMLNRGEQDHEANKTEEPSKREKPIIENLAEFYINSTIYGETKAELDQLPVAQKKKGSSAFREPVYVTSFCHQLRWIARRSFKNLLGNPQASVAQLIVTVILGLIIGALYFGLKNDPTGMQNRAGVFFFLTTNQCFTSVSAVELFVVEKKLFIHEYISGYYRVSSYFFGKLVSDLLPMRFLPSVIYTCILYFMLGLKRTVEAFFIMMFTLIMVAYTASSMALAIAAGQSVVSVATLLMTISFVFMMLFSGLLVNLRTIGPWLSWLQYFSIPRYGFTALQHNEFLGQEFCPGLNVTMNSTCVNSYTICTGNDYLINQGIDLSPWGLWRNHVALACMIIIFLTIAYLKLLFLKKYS
As to the kind of experiment: Vesicular transport assay, inside-out membrane vesicles expressing rat Bcrp. The following applies: positive substrate 20 μM, 10 min; rat Bcrp. How it is done: (§1) Inside-out membrane vesicles (5 mg protein/mL), prepared from insect cells expressing human multidrug resistance-associated protein (MRP) 2, MRP3, MRP4, breast cancer resistance protein (BCRP), bile salt export pump (BSEP), and multidrug resistance protein (MDR) one and rat Mrp2, Mrp4, Bcrp, and Bsep, and vesicles (5 mg protein/mL; prepared from the insect cells expressing no ABC transporter; serving as negative control) were obtained from Genomembrane (Kanazawa, Japan).
(§2) The test Danshen compounds at 100 µM final concentration were separately incubated with the membrane vesicles for 10 min. Buffer C (50 mM MOPS-tris, 70 mM KCl, 7.5 mM MgCl2, pH 7.0) was used for preincubation and incubation, while buffer D (40 mM MOPS-tris, 70 mM KCl, pH 7.0) was used for vesicle washing. The transport rate (pmol/mg protein/min) of the test Danshen compound was calculated using Equation (2): Transport=(CV×VV)/T/WV (2) where C V, V V, T, and W V represent concentration of the compound in vesicular lysates supernatant (μM), volume of the lysates (μL), incubation time (10 min), and amount of vesicle protein amount per well (0.05 mg), respectively. Differential transport of the test Danshen compound between ATP-containing vesicles and AMP-containing vesicles was defined as net transport ratio (TransportATP/TransportAMP ratio). […] All the incubation samples were analyzed by liquid chromatography/mass spectrometry.

The target in data set [2] is T2, human BCRP (Homo sapiens, UniProt Q9UNQ0).
T2 sequence (Q9UNQ0 1-655): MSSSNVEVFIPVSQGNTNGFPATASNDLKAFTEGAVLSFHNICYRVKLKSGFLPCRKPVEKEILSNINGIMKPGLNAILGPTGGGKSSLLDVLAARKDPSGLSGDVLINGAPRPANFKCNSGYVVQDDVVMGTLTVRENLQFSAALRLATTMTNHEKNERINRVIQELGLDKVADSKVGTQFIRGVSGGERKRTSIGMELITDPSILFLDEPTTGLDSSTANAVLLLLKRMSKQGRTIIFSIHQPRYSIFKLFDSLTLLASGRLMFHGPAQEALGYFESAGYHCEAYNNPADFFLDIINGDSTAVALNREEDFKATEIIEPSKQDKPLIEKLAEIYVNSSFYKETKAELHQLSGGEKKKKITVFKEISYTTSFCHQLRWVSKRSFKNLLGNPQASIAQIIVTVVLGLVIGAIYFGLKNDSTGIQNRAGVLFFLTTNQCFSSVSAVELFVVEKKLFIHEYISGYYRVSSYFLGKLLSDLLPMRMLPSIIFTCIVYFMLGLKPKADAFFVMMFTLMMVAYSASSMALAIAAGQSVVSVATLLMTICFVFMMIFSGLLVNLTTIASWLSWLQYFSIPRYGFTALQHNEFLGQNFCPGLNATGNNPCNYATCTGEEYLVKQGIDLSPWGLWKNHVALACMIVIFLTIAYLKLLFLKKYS
As to the kind of experiment: Vesicular transport assay, inside-out membrane vesicles expressing human BCRP. The following applies: positive substrate 20 μM, 10 min; human BCRP. The method, then: as §1, §2

Substrate in data set [3]: O=C(O)Cc1c(/C=C/C(=O)OC(Cc2ccc(O)c(O)c2)C(=O)O)ccc(O)c1O
As to the kind of experiment: cells, lysate or membranes named. The note with it: 5 min incubation, concentrations in Table 1, 37.0 °C.

Substrate in data set [4]: O=C(O)c1ccc(O)c(O)c1
As to the kind of experiment: cells, lysate or membranes named. The following applies: 5 min incubation, concentrations in Table 1, 37.0 °C.

Substrate in data set [5]: O=C(/C=C/c1ccc(O)c(O)c1)O[C@H](Cc1ccc(O)c(O)c1)C(=O)O
As to the kind of experiment: cells, lysate or membranes named. The following applies: 5 min incubation, concentrations in Table 1, 37.0 °C.

Setting [6] is: other: rat renal basolateral uptake Oat1.
Where [7] appears, read: other: rat renal basolateral uptake Oat3.
Setting [8] is: other: human hepatic sinusoidal uptake OAT2 (also renal basolateral).
The mark [9] stands for this setting: other: rat hepatic sinusoidal uptake Oat2 (also renal apical).
The mark [10] stands for this setting: other: human renal basolateral uptake OAT1.

In general, Vmax refers to the rate approached at saturating substrate.

Regarding `CN(Cc1cnc2nc(N)nc(N)c2n1)c1ccc(C(=O)N[C@@H](CCC(=O)O)C(=O)O)cc1` [MTX, methotrexate, reference compound], the “TransportATP/TransportAMP ratio, positive substrate” value in data set [1] was 20.5 ± 3.2 (MTX); in data set [2], 4.45 ± 0.67 (MTX).

B1: rat Oat1 (Rattus norvegicus) (protein)
chain: MAFNDLLKQVGGVGRFQLIQVTMVVAPLLLMASHNTLQNFTAAIPPHHCRPPANANLSKDGGLEAWLPLDKQGQPESCLRFTSPQWGPPFYNGTEANGTRVTEPCIDGWVYDNSTFPSTIVTEWNLVCSHRAFRQLAQSLYMVGVLLGAMVFGYLADRLGRRKVLILNYLQTAVSGTCAAYAPNYTVYCVFRLLSGMSLASIAINCMTLNVEWMPIHTRAYVGTLIGYVYSLGQFLLAGIAYAVPHWRHLQLVVSVPFFIAFIYSWFFIESARWYSSSGRLDLTLRALQRVARINGKQEEGAKLSIEVLRTSLQKELTLSKGQASAMELLRCPTLRHLFLCLSMLWFATSFAYYGLVMDLQGFGVSMYLIQVIFGAVDLPAKFVCFLVINSMGRRPAQMASLLLAGICILVNGIIPKSHTIIRTSLAVLGKGCLASSFNCIFLYTGELYPTVIRQTGLGMGSTMARVGSIVSPLVSMTAEFYPSMPLFIFGAVPVVASAVTALLPETLGQPLPDTVQDLKSRSRGKQNQQQQEQQKQMMPLQASTQEKNGL
For B1, the Vmax was 0.000115 µmol/min/mg in data set [3] (setting [6]), 0.000446 µmol/min/mg in data set [4] (setting [6]) and 0.000206 µmol/min/mg in data set [5] (setting [6]). Besides, the Vmax/Km amounted to 4.72 µL/min/mg in data set [3] (setting [6]) and 3.47 µL/min/mg in data set [5] (setting [6]).

B2: rat Oat3 (Rattus norvegicus) (protein)
chain: MTFSEILDRVGSMGPFQYLHVTLLALPVLGIANHNLLQIFTATTPVHHCRPPPNASIGPWVLPLDPNGKPEKCLRFVHLPNASLPNDTQRATEPCLDGWIYNSTRDTIVIEWDLVCSSNKLKEMAQSIFMAGILVGGPVIGELSDRFGRKPILTWSYLMLAASGSGAAFSPSLPVYMIFRFLCGCSISGISLSTVILNVEWVPTSMRAISSTSIGYCYTIGQFILSGLAYAIPQWRWLQLTSSAPFFIFSLLSWWVPESIRWLVLSGKYSKALKTLQRVATFNGKKEEGKKLTIEELKFNLQKDITSAKVKYGLSDLFRVSILRRVTFCLSLAWFSTGFAYYSLAMGVEEFGVNIYILQIIFGGVDIPAKFITILSLSYLGRRITQSFLLLLAGGAILALIFVPSEMQLLRTALAVFGKGCLSGSFSCLFLYTSELYPTVLRQTGMGISNVWARVGSMIAPLVKITGELQPFIPNVIFGTTALLGGSAAFFLLETLNRPLPETIEDIQNWHKQVQKTKQESEAEKASQIIPLKTGG
Regarding B2, the values for the Vmax in data set [4] (setting [7]) and in data set [5] (setting [7]) were 6.68e-05 µmol/min/mg and 3.58e-06 µmol/min/mg, respectively. The Vmax/Km in data set [5] (setting [7]) was 0.15 µL/min/mg.

B3: human OAT2 (Homo sapiens) (protein)
chain: MGFEELLEQVGGFGPFQLRNVALLALPRVLLPLHFLLPIFLAAVPAHRCALPGAPANFSHQDVWLEAHLPREPDGTLSSCLRFAYPQALPNTTLGEERQSRGELEDEPATVPCSQGWEYDHSEFSSTIATEWDLVCEQKGLNRAASTFFFAGVLVGAVAFGYLSDRFGRRRLLLVAYVSTLVLGLASAASVSYVMFAITRTLTGSALAGFTIIVMPLELEWLDVEHRTVAGVLSSTFWTGGVMLLALVGYLIRDWRWLLLAVTLPCAPGILSLWWVPESARWLLTQGHVKEAHRYLLHCARLNGRPVCEDSFSQEAVSKVAAGERVVRRPSYLDLFRTPRLRHISLCCVVVWFGVNFSYYGLSLDVSGLGLNVYQTQLLFGAVELPSKLLVYLSVRYAGRRLTQAGTLLGTALAFGTRLLVSSDMKSWSTVLAVMGKAFSEAAFTTAYLFTSELYPTVLRQTGMGLTALVGRLGGSLAPLAALLDGVWLSLPKLTYGGIALLAAGTALLLPETRQAQLPETIQDVERKSAPTSLQEEEMPMKQVQN
B3: the values for the Vmax in data set [3] (setting [8]), in data set [4] (setting [8]) and in data set [5] (setting [8]) were 0.00269 ± 0.000114 µmol/min/mg, 0.00382 ± 0.000177 µmol/min/mg and 0.000927 µmol/min/mg, respectively. In addition, the Vmax/Km in data set [3] (setting [8]) was 24.3 µL/min/mg; in data set [5] (setting [8]), 19.1 µL/min/mg.

B4: rat Oat2 (Rattus norvegicus) (protein)
chain: MGFEDLLDKVGGFGPFQLRNLVLMALPRMLLPMHFLLPVFMAAVPAHHCALPGAPANLSHQDLWLEAHLPRETDGSFSSCLRFAYPQTVPNVTLGTEVSNSGEPEGEPLTVPCSQGWEYDRSEFSSTIATEWDLVCQQRGLNKITSTCFFIGVLVGAVVYGYLSDRFGRRRLLLVAYVSSLVLGLMSAASINYIMFVVTRTLTGSALAGFTIIVLPLELEWLDVEHRTVAGVISTVFWSGGVLLLALVGYLIRSWRWLLLAATLPCVPGIISIWWVPESARWLLTQGRVEEAKKYLLSCAKLNGRPVGEGSLSQEALNNVVTMERALQRPSYLDLFRTSQLRHISLCCMMVWFGVNFSYYGLTLDVSGLGLNVYQTQLLFGAVELPSKIMVYFLVRRLGRRLTEAGMLLGAALTFGTSLLVSLETKSWITALVVVGKAFSEAAFTTAYLFTSELYPTVLRQTGLGLTALMGRLGASLAPLAALLDGVWLLLPKVAYGGIALVAACTALLLPETKKAQLPETIQDVERKSTQEEDV
On to B4, for which the Vmax worked out at 0.000164 µmol/min/mg in data set [3] (setting [9]), 0.00118 ± 1.9e-05 µmol/min/mg in data set [4] (setting [9]) and 0.00062 µmol/min/mg in data set [5] (setting [9]). Moreover, the Vmax/Km in data set [3] (setting [9]) was 2.73 µL/min/mg; in data set [5] (setting [9]), 5.2 µL/min/mg.

B5: human OAT1 (Homo sapiens) (protein)
chain: MAFNDLLQQVGGVGRFQQIQVTLVVLPLLLMASHNTLQNFTAAIPTHHCRPPADANLSKNGGLEVWLPRDRQGQPESCLRFTSPQWGLPFLNGTEANGTGATEPCTDGWIYDNSTFPSTIVTEWDLVCSHRALRQLAQSLYMVGVLLGAMVFGYLADRLGRRKVLILNYLQTAVSGTCAAFAPNFPIYCAFRLLSGMALAGISLNCMTLNVEWMPIHTRACVGTLIGYVYSLGQFLLAGVAYAVPHWRHLQLLVSAPFFAFFIYSWFFIESARWHSSSGRLDLTLRALQRVARINGKREEGAKLSMEVLRASLQKELTMGKGQASAMELLRCPTLRHLFLCLSMLWFATSFAYYGLVMDLQGFGVSIYLIQVIFGAVDLPAKLVGFLVINSLGRRPAQMAALLLAGICILLNGVIPQDQSIVRTSLAVLGKGCLAASFNCIFLYTGELYPTMIRQTGMGMGSTMARVGSIVSPLVSMTAELYPSMPLFIYGAVPVAASAVTVLLPETLGQPLPDTVQDLESRWAPTQKEAGIYPRKGKQTRQQQEHQKYMVPLQASAQEKNGL
In the case of B5, the Vmax in data set [3] (setting [10]) is 3.76e-05 µmol/min/mg; in data set [4] (setting [10]), 0.000242 µmol/min/mg; in data set [5] (setting [10]) it was 0.000181 µmol/min/mg. The Vmax/Km in data set [3] (setting [10]) stood at 2.08 µL/min/mg; in data set [5] (setting [10]) it was 2.55 µL/min/mg.
